Assay results as given in patent US6544767.

Target: mature recombinant human cathepsin O2 (human) (UniProt P43235)
Assay: cell-based or functional assay

Sequence of mature recombinant human cathepsin O2 (human) (P43235 115-329): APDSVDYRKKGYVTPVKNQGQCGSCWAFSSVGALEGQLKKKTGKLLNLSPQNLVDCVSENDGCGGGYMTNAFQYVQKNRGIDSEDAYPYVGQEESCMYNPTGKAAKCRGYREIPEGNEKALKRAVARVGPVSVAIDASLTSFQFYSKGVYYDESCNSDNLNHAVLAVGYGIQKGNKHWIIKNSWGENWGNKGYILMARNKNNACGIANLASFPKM

% inhibition (of cathepsin O2 activity, fluorimetric Z-FR-MCA assay, 0.1 µM inhibitor): 100%
Substance: chicken cystatin (from UniProt P01038 24-139)
